# Measurements taken from PMC7230020 (ACS chemical biology, 2020).
# Like-named read-outs stand apart in the source and are kept apart here. Numbered stars: 1 amine (or outer) side, 2 acyl side, 3 side chain; on linkers, the order of the positions; unused ones are H or OH. Square brackets hold non-standard residues; d marks the D form. Acd = acridonylalanine, O=C([C@H](Cc1ccc2[nH]c3ccccc3c(=O)c2c1)N[*:1])[*:2]
# T1: activated RecA (RecA*), E. coli RecA polymerised on ssDNA with ATPγS (E. coli, UniProt P0A7G6 1-353)
# T1 sequence (looked up): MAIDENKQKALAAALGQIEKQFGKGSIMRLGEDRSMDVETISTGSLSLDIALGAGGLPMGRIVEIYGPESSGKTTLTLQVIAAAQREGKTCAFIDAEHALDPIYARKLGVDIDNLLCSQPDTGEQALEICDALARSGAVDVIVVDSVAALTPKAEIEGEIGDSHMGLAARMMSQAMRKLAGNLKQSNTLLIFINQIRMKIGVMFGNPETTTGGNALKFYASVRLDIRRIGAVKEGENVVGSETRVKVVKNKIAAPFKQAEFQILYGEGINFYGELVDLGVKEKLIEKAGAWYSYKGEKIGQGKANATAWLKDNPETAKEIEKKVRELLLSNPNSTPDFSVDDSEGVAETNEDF
# What was measured:
# Assay in all cases: fluorescence polarisation
# [1] = molecular target: T1, activated RecA (RecA*), E. coli RecA …
# [2] = molecular target: T1, activated RecA (RecA*), E. coli RecA …; remark: listed apart in the source
# [3] = molecular target: T1, activated RecA (RecA*), E. coli RecA …; remark: listed apart in the source
binding result [1],koff [2] [s⁻¹],Kd [3] [nM],koff [3] [s⁻¹],kon [3] [M⁻¹ s⁻¹],Binder
binds,,,,,"LexA-S119A, unlabeled catalytically inactive full-length LexA(1–202) (natural protein, E. coli, UniProt P0A7C2 1-202, looked up) MKALTARQQEVFDLIRDHISQTGMPPTRAEIAQRLGFRSPNAAEEHLKALARKGVIEIVSGASRGIRLLQEEEEGLPLVGRVAAGEPLLAQQHIEGHYQVDPSLFKPNADFLLRVSGMAMKDIGIMDGDLLAVHKTQDVRNGQVVVARIDDEVTVKRLKKQGNKVELLPENSEFKPIVVDLRQQSFTIEGLAVGVIRNGDWL"
,0.093,790,0.048,61000,"LexA-S119A-Q161δ, full-length E. coli LexA with acridonylalanine (Acd) at position 161 (natural protein) MKALTARQQEVFDLIRDHISQTGMPPTRAEIAQRLGFRSPNAAEEHLKALARKGVIEIVSGASRGIRLLQEEEEGLPLVGRVAAGEPLLAQQHIEGHYQVDPSLFKPNADFLLRVSGMAMKDIGIMDGDLLAVHKTQDVRNGQVVVARIDDEVTVKRLKK[Acd]GNKVELLPENSEFKPIVVDLRQQSFTIEGLAVGVIRNGDWL"
